Measured values as given in paper PMC5134096.

Target: soluble manganese peroxidase (MnP) from Irpex lacteus F17 (Irpex lacteus F17)
Assay: SEC + other: dynamic light scattering; soluble MnP after Ni-NTA; HiLoad 16/60 Superdex 200 in 20 mM Tris-HCl pH 8.0, 200 mM NaCl; SEC peak II, DLS at room temperature at 0.1 mg/ml in the same buffer

stoichiometry N: 2
Substance: soluble manganese peroxidase (MnP) from Irpex lacteus F17 (enzyme)
